The supplement of paper PMC10724198
± gives the standard deviation of the averaged measurements.

System: Saccharomyces cerevisiae
Assay: protein stability index of tFT-peptide fusion (C-terminal peptide) (PSI (0-1 scale)); higher = more stable (slower turnover)
Details: temperature: 30 C
Experimental: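 MPS profiling in S. cerevisiae of the yeast C-terminome library: the last 12 aa of each annotated ORF are fused to the C-terminus of a sfGFP-mCherry timer, after a GGGS linker. Cells are FACS-sorted into 8 mCherry/sfGFP bins and deep-sequenced. PSI runs from 0 (unstable) to 1 (stable); wild type and das1Δ backgrounds, two technical replicates each.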

[1] = genetic background: das1 deletion

Row | Sequence | protein stability index [1] | protein stability index (genetic background: wild type)
1 | MSLMRKAYHFWC [BAP2 C-terminal 12 aa] | 0.726 ± 0.024 | 0.619 ± 0.039
2 | MTMILSRMSCSA [IRA2 C-terminal 12 aa] | 0.622 ± 0.014 | 0.609 ± 0.015
3 | MVEAAALKRNKK [ARO10 C-terminal 12 aa] | 0.686 ± 0.049 | 0.7161 ± 0.0026
4 | MVYKPEDSLLKI [MTR2 C-terminal 12 aa] | 0.684 ± 0.039 | 0.67 ± 0.014
5 | MYCASFQLPANV [TRM5 C-terminal 12 aa] | 0.673 ± 0.015 | 0.6578 ± 0.0027
6 | NDEEKQALAEKA [YLR297W C-terminal 12 aa] | 0.683 ± 0.011 | 0.6834 ± 0.0067
7 | NDGTSANSACSC [VPS21 C-terminal 12 aa] | 0.715 ± 0.012 | 0.691 ± 0.045
8 | NDITLAVYTSAQ [EGO2 C-terminal 12 aa] | 0.6895 ± 0.00082 | 0.651 ± 0.021
9 | NEDLGLSDIKVE [ZPR1 C-terminal 12 aa] | 0.694 ± 0.0078 | 0.68742 ± 0.00015
10 | NEQEINKIFEPE [HXT14 C-terminal 12 aa] | 0.694 ± 0.01 | 0.743 ± 0.052
11 | NEQVKKFFLNNV [NAS6 C-terminal 12 aa] | 0.701 ± 0.029 | 0.714 ± 0.01
12 | NGLNWEVIEYHA [HRI1 C-terminal 12 aa] | 0.724 ± 0.008 | 0.713 ± 0.042
13 | NGNNAESGETKQ [SSC1 C-terminal 12 aa] | 0.6813 ± 0.0068 | 0.6673 ± 0.0059
14 | NKAPSWLLTALE [OCA1 C-terminal 12 aa] | 0.6834 ± 0.0031 | 0.69 ± 0.027
15 | NKKRLSVDYILT [USV1 C-terminal 12 aa] | 0.689 ± 0.05 | 0.679 ± 0.022
16 | NKNKNKVTKGRR [RAD27 C-terminal 12 aa] | 0.668 ± 0.024 | 0.672 ± 0.026
17 | NKVDINMEQEKF [UGO1 C-terminal 12 aa] | 0.699 ± 0.043 | 0.651 ± 0.027
18 | NLANDEQPLHNL [MDM30 C-terminal 12 aa] | 0.699 ± 0.02 | 0.659 ± 0.03
19 | NLGYSKDQVFKF [MCR1 C-terminal 12 aa] | 0.708 ± 0.0082 | 0.688 ± 0.039
20 | NMIIDTLGGNEK [COQ6 C-terminal 12 aa] | 0.735 ± 0.019 | 0.692 ± 0.013
21 | NNLNTNTSTTTQ [MIT1 C-terminal 12 aa] | 0.682 ± 0.011 | 0.68 ± 0.065

Row | Sequence | protein stability index [1] | protein stability index (genetic background: wild type)
22 | NNLQSFYFDNSN [BCK2 C-terminal 12 aa] | 0.689 ± 0.018 | 0.706 ± 0.03
23 | NNNIANDYMDID [YML053C C-terminal 12 aa] | 0.7268 ± 0.005 | 0.815 ± 0.067
24 | NNRYKNFSPKRL [YHR071C-A C-terminal 12 aa] | 0.746 ± 0.011 | 0.683 ± 0.034
25 | NPTIGRDSKKAV [PEX30 C-terminal 12 aa] | 0.694 ± 0.011 | 0.702 ± 0.015
26 | NPWKSQIRDWKN [YBL100W-C C-terminal 12 aa] | 0.704 ± 0.018 | 0.77 ± 0.031
27 | NRLKGQNSHQQR [RGS2 C-terminal 12 aa] | 0.7072 ± 0.0026 | 0.726 ± 0.035
28 | NRRSDKNLPDAT [STE12 C-terminal 12 aa] | 0.7085 ± 0.002 | 0.694 ± 0.0077
29 | NSEKDQVPILSS [SSK22 C-terminal 12 aa] | 0.702 ± 0.011 | 0.729 ± 0.041
30 | NSTSSKDKKKKN [SES1 C-terminal 12 aa] | 0.707 ± 0.008 | 0.7314 ± 0.0025
31 | NTAKATYDLYTN [GPI8 C-terminal 12 aa] | 0.686 ± 0.012 | 0.6703 ± 0.0046
32 | NTQVDDETKKNN [YDC1 C-terminal 12 aa] | 0.7078 ± 0.0056 | 0.7367 ± 0.0051
33 | NVDVVTPNSIFI [TMA17 C-terminal 12 aa] | 0.67 ± 0.036 | 0.6982 ± 0.0046
34 | NVKVKALQRMTW [TIS11 C-terminal 12 aa] | 0.6967 ± 0.0018 | 0.729 ± 0.039
35 | NVPSFGQDELDQ [MPS3 C-terminal 12 aa] | 0.699 ± 0.016 | 0.688 ± 0.011
36 | NVTGSANNGTHI [SVS1 C-terminal 12 aa] | 0.708 ± 0.032 | 0.671 ± 0.016
37 | NYDLQKLYDKID [QDR3 C-terminal 12 aa] | 0.705 ± 0.037 | 0.6544 ± 0.0034
38 | NYLKKHSEKQDA [ATP19 C-terminal 12 aa] | 0.709 ± 0.022 | 0.723 ± 0.066
39 | PEALIKSMTSKL [SPS19 C-terminal 12 aa] | 0.712 ± 0.038 | 0.725 ± 0.18
40 | PEKGSGFNTNLG [DCS2 C-terminal 12 aa] | 0.6973 ± 0.0014 | 0.738 ± 0.025
41 | PKRGGLFGFGRL [JIP4 C-terminal 12 aa] | 0.7853 ± 0.0046 | 0.762 ± 0.023
42 | PLGEKFLNISNS [TEN1 C-terminal 12 aa] | 0.7047 ± 0.0035 | 0.694 ± 0.013

Row | Sequence | protein stability index [1] | protein stability index (genetic background: wild type)
43 | PLMTVLGLEKKK [DPC13 C-terminal 12 aa] | 0.703 ± 0.021 | 0.675 ± 0.064
44 | PLTRFHSCPITA [ECM13 C-terminal 12 aa] | 0.275 ± 0.035 | 0.301 ± 0.013
45 | PPASESNKGINE [YDR008C C-terminal 12 aa] | 0.694 ± 0.013 | 0.661 ± 0.032
46 | PPKSIFDTDDDD [RCN1 C-terminal 12 aa] | 0.741 ± 0.025 | 0.714 ± 0.054
47 | PSPGFHMYGCHT [YLR156W C-terminal 12 aa] | 0.708 ± 0.022 | 0.695 ± 0.0084
48 | PSYAKVQEFATP [NEO1 C-terminal 12 aa] | 0.71 ± 0.0097 | 0.684 ± 0.0059
49 | PVTPAVSKRYQP [YER084W C-terminal 12 aa] | 0.715 ± 0.0072 | 0.6939 ± 0.003
50 | QAIEDKLNKMSR [BIL1 C-terminal 12 aa] | 0.686 ± 0.026 | 0.683 ± 0.018
51 | QALFVLYYLYSI [YDR406W-A C-terminal 12 aa] | 0.428 ± 0.018 | 0.445 ± 0.013
52 | QDKQVKSWWRFW [CBP4 C-terminal 12 aa] | 0.762 ± 0.016 | 0.7144 ± 0.0053
53 | QEANDDLMIDVN [ENP1 C-terminal 12 aa] | 0.678 ± 0.045 | 0.699 ± 0.015
54 | QGQKFIHDNNTN [YMR245W C-terminal 12 aa] | 0.673 ± 0.031 | 0.646 ± 0.018
55 | QHIKTHKKHGDI [MSN2 C-terminal 12 aa] | 0.67783 ± 0.00033 | 0.667 ± 0.014
56 | QIDKLLTVLDSL [RTP1 C-terminal 12 aa] | 0.717 ± 0.023 | 0.691 ± 0.038
57 | QIIYYIARSKGL [MEC3 C-terminal 12 aa] | 0.665 ± 0.058 | 0.668 ± 0.035
58 | QIRSVFSGVYGG [ASP3-1 C-terminal 12 aa] | 0.691 ± 0.013 | 0.689 ± 0.049
59 | QKAKLNKLDSKK [NOP7 C-terminal 12 aa] | 0.677 ± 0.0057 | 0.704 ± 0.068
60 | QKEPNDQIDVEE [GPN3 C-terminal 12 aa] | 0.673 ± 0.025 | 0.698 ± 0.042
61 | QKRIQRKKMNEM [AIM23 C-terminal 12 aa] | 0.71243 ± 0.0002 | 0.663 ± 0.014
